We go through seven molecules from paper PMC8346855 (Proceedings of the National Academy of Sciences of the …, 2021).

Holding throughout (details): both partners purified
For assay [1], the target named is T1, thermostabilized turkey beta-1 adrenergic receptor (turkey).
T1 construct: turkey beta-1 adrenergic receptor, thermostabilized, truncated at the C terminus and intracellular loop 3; the states are told apart by the assay; also called β1AR; apo-β1AR
Description: cross-linking + other: high-mass MALDI-MS; competition: Nb80 (0 to 13.3 µM) added to iso-β1AR (2.5 µM) and mGo (3.0 µM), 1 h at room temperature, BS(PEG)9 cross-linking, β-Gal as internal standard; read-out β1AR•mGo formation.

Assay [2] has as its target T1, thermostabilized turkey beta-1 …. The assay can be described thus: cross-linking + other: high-mass MALDI-MS; isoprenaline-bound β1AR (iso-β1AR), 5 µM, mixed with partner protein at various concentrations, 1 h at room temperature, BS(PEG)9 cross-linking, 0.6 µM β-Gal as internal standard; 20 mM Hepes pH 7.5, 40 mM NaCl, 0.01% LMNG; Ka = 1/Kd.
The target in assay [3] is T2, thermostabilized turkey beta-1 adrenergic receptor (Meleagris gallopavo (turkey), stabilised).
T2 construct: beta-1 adrenergic receptor, turkey, thermostabilized, truncated at the C terminus and intracellular loop 3; Not treated with kinases; Small-molecule ligand states are told apart by the assay; also called β1AR; apo-β1AR; source: purified
T2 sequence (P07700 other isoform, or with tags, fused parts or gaps, change not shown): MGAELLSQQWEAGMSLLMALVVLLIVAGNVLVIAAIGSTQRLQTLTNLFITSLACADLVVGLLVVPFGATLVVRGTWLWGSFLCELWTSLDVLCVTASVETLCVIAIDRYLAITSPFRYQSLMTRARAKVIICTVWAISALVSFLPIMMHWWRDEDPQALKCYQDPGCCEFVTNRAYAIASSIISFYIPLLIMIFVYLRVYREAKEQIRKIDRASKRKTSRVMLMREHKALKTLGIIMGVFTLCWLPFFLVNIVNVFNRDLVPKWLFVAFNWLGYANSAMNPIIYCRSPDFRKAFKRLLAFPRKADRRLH
Description: cross-linking; competition: 2.5 μM β1AR, 3.0 μM mGo, increasing concentrations of Nb80; BS(PEG)9, high-mass MALDI-MS.

The target of assay [4] is T2, thermostabilized turkey beta-1 …. Description: cross-linking; Kd by titrating the partner protein against isoprenaline-bound β1AR; 20 mM Hepes pH 7.5, 40 mM NaCl, 0.01% lauryl maltose neopentyl glycol; BS(PEG)9, high-mass MALDI-MS, normalised to β-galactosidase.
Assay [5] concerns the target T1, thermostabilized turkey beta-1 …. Description: cross-linking + other: high-mass MALDI-MS; formation of β1AR•mGo with the titration of mGo, reading of EC50 (Graphpad); ligand state of β1AR not told for this curve.
The target is the same in assay [6]. The assay can be described thus: cross-linking + other: high-mass MALDI-MS; ligand-free (apo) GPCR, 5 µM, mixed with partner protein at various concentrations, 1 h at room temperature, BS(PEG)9 cross-linking, β-Gal as internal standard; 20 mM Hepes pH 7.5, 40 mM NaCl, 0.01% LMNG; Ka = 1/Kd.

Broadly, the IC50 is the concentration that gives 50% inhibition. A word on the Ki: it is the equilibrium dissociation constant of an inhibitor or competing ligand from its target. A word on the Kd: it is the free concentration of one partner at which half of the binding sites on the other are occupied at equilibrium, for simple one-to-one binding. One may read the EC50 as the midpoint of the concentration-response curve.

T1 sequence (chain, as listed by the source): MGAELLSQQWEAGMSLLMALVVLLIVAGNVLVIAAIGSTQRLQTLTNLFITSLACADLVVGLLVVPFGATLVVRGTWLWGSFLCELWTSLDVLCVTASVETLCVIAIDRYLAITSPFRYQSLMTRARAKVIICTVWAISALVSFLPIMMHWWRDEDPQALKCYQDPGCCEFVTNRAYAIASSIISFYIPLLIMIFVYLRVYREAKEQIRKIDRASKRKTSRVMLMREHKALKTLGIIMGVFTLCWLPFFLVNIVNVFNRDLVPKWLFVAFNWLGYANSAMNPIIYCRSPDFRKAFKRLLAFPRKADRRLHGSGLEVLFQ

B1: nanobody 80 (VHH)
VHH: QVQLQESGGGLVQAGGSLRLSCAASGSIFSINTMGWYRQAPGKQRELVAAIHSGGSTNYANSVKGRFTISRDNAANTVYLQMNSLKPEDTAVYYCNVKDYGAVLYEYDYWGQGTQVTVSS
notes: nanobody 80; also called Nb80; NB80; not shown: His6, C-terminal, kept
With B1, the IC50 in assay [1] came out at 4.61 µM. For the same molecule, the Ka in assay [2] turned out to be 4.76e+06 M⁻¹.

B2: nanobody 80 (VHH)
VHH: QVQLQESGGGLVQAGGSLRLSCAASGSIFSINTMGWYRQAPGKQRELVAAIHSGGSTNYANSVKGRFTISRDNAANTVYLQMNSLKPEDTAVYYCNVKDYGAVLYEYDYWGQGTQVTVSS
notes: also called Nb80; a Gs mimetic nanobody; source: purified
Consider B2, for which the Ki in assay [3] is 1.57 ± 0.24 µM. In assay [4], binding was characterised by a dissociation constant (Kd) of 0.21 µM.

B3: mini-Go (domain or fragment)
chain: GIEKNLKEDGISAAKDVKLLLLGADNSGKSTIVKQMKIIHGGSGGSGGTTGIVETHFTFKNLHFRLFDVGGQRSERKKWIHCFEDVTAIIFCVDLSDYNRMHESLMDFDSICNNKFFIDTSIILFLNKKDLFGEKIKKSPLTICFPEYTGPNTYEDAAAYIQAQFESKNRSPNKEIYCHMTCATDTNNAQVIFDAVTDIIIANNLRGCGLY
notes: thermostabilized truncated form of the Gαo subunit with the GTPase domain, lacking the α-helical domain; also called mGo; source: E. coli, purified (Ni Sepharose, TEV cleavage, reverse Ni-NTA, gel filtration); not shown: His tag, N-terminal, cleaved
With B3, in assay [5], the EC50 was 1.58 µM. Further, the Ka in assay [6] and in assay [2] was 4e+06 M⁻¹ throughout.

B4: mini-Go truncated by its last five residues (domain or fragment)
chain: GIEKNLKEDGISAAKDVKLLLLGADNSGKSTIVKQMKIIHGGSGGSGGTTGIVETHFTFKNLHFRLFDVGGQRSERKKWIHCFEDVTAIIFCVDLSDYNRMHESLMDFDSICNNKFFIDTSIILFLNKKDLFGEKIKKSPLTICFPEYTGPNTYEDAAAYIQAQFESKNRSPNKEIYCHMTCATDTNNAQVIFDAVTDIIIANNLR
notes: mGo (Dm6) without its last five residues GCGLY; also called mGo_Δ5; source: E. coli, purified (same protocol as the mGα proteins); not shown: His tag, N-terminal, cleaved
Take B4: the values for the Ka in assay [6] and in assay [2] were 3.57e+06 M⁻¹ and 4.17e+06 M⁻¹, respectively.

B5: mini-Gq (domain or fragment)
chain: GIEKQLQKDKQVYRATHRLLLLGADNSGKSTIVKQMRILHGGSGGSGGTSGIFETKFQVDKVNFHMFDVGGQRDERRKWIQCFNDVTAIIFVVDSSDYNRLQEALNDFKSIWNNRWLRTISVILFLNKQDLLAEKVLAGKSKIEDYFPEFARYTTPEDATPEPGEDPRVTRAKYFIRDEFLRISTASGDGRHYCYPHFTCAVDTENARRIFNDCKDIILQMNLREYNLV
notes: engineered from mGs (Dm5) by nine mutations on the α5-helix that correspond to residues of Gq; only residues of the α5-helix are those of Gq; also called mGq; source: E. coli, purified (Ni Sepharose, TEV cleavage, reverse Ni-NTA, gel filtration); not shown: His tag, N-terminal, cleaved
Take B5: the Ka in assay [2] was determined as 810000 M⁻¹.

B6: mini-Gi (domain or fragment)
chain: GIEKQLQKDKQVYRATHRLLLLGADNSGKSTIVKQMRILHGGSGGSGGTSGIFETKFQVDKVNFHMFDVGGQRDERRKWIQCFNDVTAIIFVVDSSDYNRLQEALNDFKSIWNNRWLRTISVILFLNKQDLLAEKVLAGKSKIEDYFPEFARYTTPEDATPEPGEDPRVTRAKYFIRDEFLRISTASGDGRHYCYPHFTCAVDTENARRIFNDVTDIIIKMNLRDCGLF
notes: engineered from mGs (Dm5) by seven mutations on the α5-helix that correspond to residues of Gi; only residues of the α5-helix are those of Gi; also called mGi; source: E. coli, purified (Ni Sepharose, TEV cleavage, reverse Ni-NTA, gel filtration); not shown: His tag, N-terminal, cleaved
For the molecule B6, the Ka in assay [2] was 620000 M⁻¹.

B7: mini-Gs (domain or fragment)
chain: GIEKQLQKDKQVYRATHRLLLLGADNSGKSTIVKQMRILHGGSGGSGGTSGIFETKFQVDKVNFHMFDVGGQRDERRKWIQCFNDVTAIIFVVDSSDYNRLQEALNDFKSIWNNRWLRTISVILFLNKQDLLAEKVLAGKSKIEDYFPEFARYTTPEDATPEPGEDPRVTRAKYFIRDEFLRISTASGDGRHYCYPHFTCAVDTENARRIFNDCRDIIQRMHLRQYELL
notes: thermostabilized truncated Gαs with the GTPase domain, lacking the α-helical domain; also called mGs; source: E. coli, purified (Ni Sepharose, TEV cleavage, reverse Ni-NTA, gel filtration); not shown: His tag, N-terminal, cleaved
Consider B7, for which the Ka in assay [2] came to 2.86e+06 M⁻¹.
